In patent US20080286819A1:

Assays:
[1] = target: Mouse soluble FcγRIIB (mouse) (UniProt P08101); assay: SPR; reference mouse FcγRIII
[2] = target: Mouse soluble FcγRIII (mouse) (UniProt P08508); assay: ratio of SPR affinities; reference mouse FcγRIIB
[3] = target: Human soluble FcγRIIA^131H (human) (UniProt P12318); assay: SPR (Biacore), antibody immobilized, soluble FcγR injected
[4] = target: Human soluble FcγRIIA^131R (human) (UniProt P12318); assay: as above
[5] = target: Human soluble FcγRIIB (human) (UniProt P31994); assay: as above
UniProt P31994, sequence (P31994 43-217): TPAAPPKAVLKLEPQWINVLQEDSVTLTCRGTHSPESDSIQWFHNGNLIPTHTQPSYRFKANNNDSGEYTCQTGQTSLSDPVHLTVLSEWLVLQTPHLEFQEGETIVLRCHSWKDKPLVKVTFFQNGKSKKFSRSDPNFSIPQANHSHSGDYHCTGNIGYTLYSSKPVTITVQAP

[6] = target: Mouse soluble FcγRIIB (mouse) (UniProt P08101); assay: as above
[7] = target: Mouse soluble FcγRIII (mouse) (UniProt P08508); assay: as above
[8] = target: Human soluble FcγRIIIA^158F (human) (UniProt P08637); assay: SPR (Biacore), antibody immobilized; + = detectable but very low binding
UniProt P08637, sequence (P08637 17-208): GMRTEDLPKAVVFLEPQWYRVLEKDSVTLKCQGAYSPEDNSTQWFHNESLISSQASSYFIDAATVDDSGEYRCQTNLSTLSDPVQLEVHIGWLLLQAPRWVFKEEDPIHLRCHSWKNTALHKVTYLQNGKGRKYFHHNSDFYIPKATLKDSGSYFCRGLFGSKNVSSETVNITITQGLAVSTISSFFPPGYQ

[9] = target: Human soluble FcγRIIA^131H (human) (UniProt P12318); assay: as above
[10] = target: Human soluble FcγRIIA^131R (human) (UniProt P12318); assay: as above
[11] = target: Human soluble FcγRIIB (human) (UniProt P31994); assay: SPR; reference human FcγRIIIA and FcγRIIA
[12] = target: Mouse soluble FcγRI (mouse) (UniProt P26151); assay: SPR (Biacore), antibody immobilized, soluble FcγR injected
UniProt P26151, sequence (P26151 25-297): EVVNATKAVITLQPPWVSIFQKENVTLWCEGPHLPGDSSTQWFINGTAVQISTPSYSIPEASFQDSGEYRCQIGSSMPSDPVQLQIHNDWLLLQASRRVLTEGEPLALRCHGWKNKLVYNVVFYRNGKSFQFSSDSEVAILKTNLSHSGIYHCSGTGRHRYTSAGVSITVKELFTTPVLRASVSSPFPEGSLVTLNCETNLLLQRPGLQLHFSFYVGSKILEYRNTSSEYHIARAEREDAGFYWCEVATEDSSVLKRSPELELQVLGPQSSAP

[13] = target: Mouse soluble FcγRIIB (mouse) (UniProt P08101); assay: SPR (Biacore), antibody immobilized; + = detectable but very low binding
[14] = target: Mouse soluble FcγRIII (mouse) (UniProt P08508); assay: as above
[15] = target: Mouse soluble FcγRIV (mouse); assay: as above
[16] = target: Human soluble FcγRIIIA^158F (human) (UniProt P08637); assay: SPR (Biacore), antibody immobilized, soluble FcγR injected
[17] = target: Human soluble FcγRIIB (human) (UniProt P31994); assay: SPR, soluble human Fc-receptor
[18] = target: Human soluble FcγRIIIA^158F (human) (UniProt P08637); assay: SPR, soluble human Fc-receptor
[19] = target: Mouse soluble FcγRIV (mouse); assay: SPR (Biacore), antibody immobilized, soluble FcγR injected
[20] = target: Mouse soluble FcγRIV (mouse); assay: SPR; reference mouse FcγRIIB
[21] = target: Mouse soluble FcγRIV (mouse); assay: ratio of SPR affinities; reference mouse FcγRIIB
[22] = target: Human soluble FcγRIIA^131H (human) (UniProt P12318); assay: SPR, soluble human Fc-receptor
[23] = target: Human soluble FcγRIIA^131H (human) (UniProt P12318); assay: ratio of SPR affinities; reference human FcγRIIB
[24] = target: Human soluble FcγRIIIA^158F (human) (UniProt P08637); assay: ratio of SPR affinities; reference human FcγRIIB

UniProt P08101, sequence (P08101 30-210): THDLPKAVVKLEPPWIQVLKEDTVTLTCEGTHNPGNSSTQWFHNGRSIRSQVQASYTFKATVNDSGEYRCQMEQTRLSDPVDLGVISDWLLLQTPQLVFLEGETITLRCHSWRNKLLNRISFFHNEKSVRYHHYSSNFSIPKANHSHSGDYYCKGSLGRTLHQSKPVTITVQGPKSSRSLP
UniProt P08508, sequence (P08508 31-215): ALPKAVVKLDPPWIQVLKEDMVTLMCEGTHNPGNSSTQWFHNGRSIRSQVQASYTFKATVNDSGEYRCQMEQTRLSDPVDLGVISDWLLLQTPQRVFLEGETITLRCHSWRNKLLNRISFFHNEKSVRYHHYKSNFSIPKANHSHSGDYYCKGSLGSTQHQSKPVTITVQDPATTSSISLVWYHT

Substance	Ka [3] [M⁻¹]	Ka [4] [M⁻¹]	Ka [5] [M⁻¹]	Ka [6] [M⁻¹]	Ka [7] [M⁻¹]	Ka [8] [M⁻¹]	Ka [12] [M⁻¹]	Ka [16] [M⁻¹]	Ka [19] [M⁻¹]	also measured
mIgG1 (FITC-isotype switch variant) (antibody)	40000	250000	100000	3.3e+06	310000	< 10000				fold higher affinity than to FcγRIII [1]: 10 fold; A/I (ratio of KA for the activating receptor FcγRIII to KA for the inhibitory FcγRIIB) [2]: 0.1
mIgG3 (FITC-isotype switch variant) (antibody)						< 10000				Ka [9]: < 10000 M⁻¹; Ka [10]: < 10000 M⁻¹
hIgG4 (FITC-isotype switch variant) (antibody)			48000				72000			fold higher affinity than to FcγRIIIA and FcγRIIA [11]: > 4.8 fold; Ka [9]: < 10000 M⁻¹; Ka [10]: < 10000 M⁻¹; Ka [13]: < 10000 M⁻¹; Ka [14]: < 10000 M⁻¹; Ka [15]: < 10000 M⁻¹
hIgG3 (FITC-isotype switch variant) (antibody)	120000	240000	70000	83000			1.2e+06	180000		Ka [15]: < 10000 M⁻¹
FITC-IgG1-Fucose (human IgG1 Fc-switch variant of the 4-4-20 antibody lacking fucose)										Ka [17]: 78100 M⁻¹; Kd [17]: 12.8 µM; Ka [18]: 5.97e+06 M⁻¹; Kd [18]: 0.168 µM
hIgG2 (FITC-isotype switch variant, human Fc-switch variant of the 4-4-20 antibody)	120000	21000				< 10000				Ka [13]: < 10000 M⁻¹; Ka [14]: < 10000 M⁻¹
mIgG2a (FITC-isotype switch variant) (antibody)	170000	320000	160000	420000	680000		1.8e+08		2.9e+07	
mIgG2b (FITC-isotype switch variant) (antibody)	120000	91000	120000	2.2e+06	640000			10000	1.7e+07	fold higher affinity than to FcγRIIB [20]: 10 fold; A/I (ratio of KA for the activating receptor FcγRIV to KA for the inhibitory FcγRIIB) [21]: 7
FITC-IgG2-Fucose (human IgG2 Fc-switch variant of the 4-4-20 antibody lacking fucose)										Ka [22]: 135000 M⁻¹; Kd [22]: 7.4 µM; Ka [17]: 25400 M⁻¹; Kd [17]: 39.4 µM; Ka [18]: 144000 M⁻¹; Kd [18]: 6.93 µM; A/I ratio IIA/IIB (KA for FcγRIIA over KA for FcγRIIB) [23]: 5.31; A/I ratio IIIA/IIB (KA for FcγRIIIA over KA for FcγRIIB) [24]: 5.67
hIgG1 (FITC-isotype switch variant, human Fc-switch variant of the 4-4-20 antibody)	380000	270000		200000	35000		3.8e+06	430000	2.2e+06	
